The values that follow come from the RNAGym collection of RNA variant scans (doi:10.7554/elife.80360).

B1: Hairpin Ribozyme (parent)
chain: GUCCUCUUUCACGUGCGCGUGAAAGAGAGAAGUGAACCAGAGAAACACACGUUGUGGUAUAUUACCUGGUA

The data set covers variants of B1. The data set is described as follows: self-cleavage, relative activity (ratio to wild type); higher = more cleavage; co-transcriptional.
For the variant A30U A41U, the self-cleavage stood at 0.232.
With G32A U70A, the self-cleavage worked out at 0.139.
For G32C C66G the value was 0.114.
A31C C48U: the self-cleavage was 0.159.
For the variant G32A A35C, the self-cleavage was determined as 0.177.
A30C U70A: the self-cleavage is 0.159.
Under A30C U70C stands 0.127.
In the case of G32A C50G, the self-cleavage came out at 0.179.
G32A C50A: the self-cleavage was 0.168.
For G32U G34C the value was 0.18.
Under A31U G40U stands 0.182; under A31U G40C, 0.154; under A30U A71G, 0.286.
For A30G G42U the value was 0.0793.
Turning to A31C C50A, the self-cleavage turned out to be 0.139.
G32A G34C: the self-cleavage was found to be 1.23.
Consider A30G U55C, for which the self-cleavage was found to be 0.0826.
As to A30G G32U, the self-cleavage was 0.124.
Consider A30G G32A, for which the self-cleavage was determined as 0.137.
For A30G G32C the value was 0.106.
For A30U G40A the value was 0.0894.
As to G32U A45U, the self-cleavage is 0.3.
G32U A45G: the self-cleavage was 0.0481.
Under A30G G40C stands 0.131; under G32A C66U, 0.177; under A31U C65G, 0.166.
For A31U C65U the value was 0.121; for A31G C48U, 0.257; for A31G C48G, 0.1.
Under A30G C46G stands 0.185; under A31C U60G, 0.194.
In the case of A31C C38A, the self-cleavage amounted to 0.141.
As to A31C C38G, the self-cleavage amounted to 0.196.
Under A31U C38U stands 0.157; under A30G G34A, 0.164; under A30G G34C, 0.79.
Consider A31C U52G, for which the self-cleavage was 0.0727.
Take G32C U58A: the self-cleavage was determined as 0.116.
Regarding A31G U58A, the self-cleavage was 0.323.
For A31G U58C the value was 0.793; for A31G U58G, 0.404.
G32U G51A: the self-cleavage was found to be 0.179.
Turning to G32U G51U, the self-cleavage turned out to be 0.119.
For the variant A30U A45C, the self-cleavage worked out at 0.0664.
For the variant A30U U63G, the self-cleavage amounted to 0.0835.
For A30U C38U the value was 0.232; for A30U C38A, 0.0692.
Under A30U C38G stands 0.108; under G32C U53C, 0.155; under A30U U53A, 0.138.
Under A30U U53G stands 0.277.
For A30G G57C, the self-cleavage was 0.0397.
As to A31C U53A, the self-cleavage was 0.126.
Under G32U A35U stands 0.191; under G32U A35G, 0.0968.
With G32A U63C, the self-cleavage came out at 0.0959.
Take G32A C37U: the self-cleavage was 0.129.
Regarding G32A C37A, the self-cleavage was found to be 0.115.
With A31G A71C, the self-cleavage worked out at 1.05.
Regarding G32C A45U, the self-cleavage came to 0.121.
As to G32U C48G, the self-cleavage worked out at 0.188.
For G32A G42A the value was 0.0757.
For G32A G42C the value was 0.124.
Under A30U U55A stands 0.0256; under A30U U55G, 0.106.
In the case of A31C A43U, the self-cleavage amounted to 0.0953.
For A30U U52G the value was 0.0874; for A30U U52C, 0.135; for A31U C48G, 0.0916.
For A31U C48U the value was 0.109; for A30G A47U, 0.131; for G32C U60C, 0.0463.
For A31G C66A the value was 0.127.
Consider A31G C66G, for which the self-cleavage came out at 0.211.
Under A30G A41C stands 0.201.
Take G32C C38G: the self-cleavage amounted to 0.0953.
Regarding G32C C38U, the self-cleavage came to 0.181.
For A31U A41G the value was 0.0486; for A31C G51U, 0.149; for A31U G42A, 0.0839.
With G32C U52C, the self-cleavage is 0.131.
For G32A C48G the value was 0.117; for A31G G51A, 0.927.
For G32C C50A the value was 0.109.
On to G32C C50G, for which the self-cleavage amounted to 0.14.
Under A31C U62A stands 0.12; under G32C A49C, 0.0996.
Under A31C A45C stands 0.0871.
For A30U C46U, the self-cleavage amounted to 0.0965.
A31C G42A: the self-cleavage was 0.164.
Under A31C C37A stands 0.0507; under A31C C37U, 0.134; under G32A A59C, 0.133.
For G32A A59G the value was 0.189; for A31C G32A, 0.173.
As to A31C G32U, the self-cleavage came out at 0.348.
Consider A31G U67A, for which the self-cleavage was 0.0798.
A31U U53C: the self-cleavage came out at 0.133.
Regarding A31U A36U, the self-cleavage worked out at 0.121.
For G32A G56C the value was 0.0365; for G32U A49G, 0.128.
Regarding G32U A49C, the self-cleavage was 0.0697.
As for G32A A43U, the self-cleavage came to 0.0753.
Consider A31C U33A, for which the self-cleavage worked out at 0.241.
For A30U A31U the value was 0.149; for A30U G57U, 0.175; for A30U G57A, 0.0986.
For the variant A31G A45G, the self-cleavage was determined as 0.0922.
Regarding G32C C65U, the self-cleavage was 0.0495.
For A30G C48G, the self-cleavage came to 0.0877.
For A30G C48A the value was 0.0555.
Under A30G C48U stands 0.19.
For A31C A44G the value was 0.174; for A31C A44U, 0.109; for G32A C46A, 0.145.
For A31G U60G, the self-cleavage was 0.412.
Regarding A31G U60A, the self-cleavage stood at 0.677.
For A31G C65A the value was 0.891; for A31G C65G, 0.17; for A30U G32A, 0.183.
Under A30U G32U stands 0.0889.
With G32A A39C, the self-cleavage is 0.0881.
For G32A A39G the value was 0.107.
For A31G G34U the value was 1.54.
Under A31G G34C stands 1.44; under A31G G68A, 0.189; under A31G G68C, 0.115.
For the variant A31U U67A, the self-cleavage was found to be 0.1.
Under A31U U67G stands 0.0559.
As to A30U U33A, the self-cleavage was 0.0677.
For A31G C38A the value was 0.157.
Consider G32C C46G, for which the self-cleavage was determined as 0.0694.
On to A31U U58G, for which the self-cleavage came out at 0.18.
In the case of A31C G34C, the self-cleavage is 0.127.
For A31C G34U the value was 0.0576; for A31U G32A, 0.102; for A31U G32C, 0.165.
As to A30G G68A, the self-cleavage turned out to be 0.0362.
For A30G G68C, the self-cleavage amounted to 0.132.
For A31G U70C the value was 0.751.
For A31G U70G the value was 0.376; for A31C C66G, 0.102; for A31C C66A, 0.146.
In the case of G32C G57C, the self-cleavage came out at 0.113.
For A31U G51U, the self-cleavage is 0.121.
Take A31C A71U: the self-cleavage turned out to be 0.1.
Under A30G A44U stands 0.227.
Under G32C C37U stands 0.131; under A30U G69C, 0.0465; under A31U C37A, 0.0463.
For A31C A64G the value was 0.0732; for A31C G69C, 0.0986.
G32C A59C: the self-cleavage amounted to 0.198.
For G32C U62G the value was 0.0745.
For the variant G32C U62A, the self-cleavage came out at 0.234.
Under G32C A35G stands 0.146; under A31G A35C, 0.6.
For G32U C46A the value was 0.272; for G32U C46G, 0.14; for G32U C66U, 0.194.
For A31C G68U the value was 0.122.
For the variant A31C G68C, the self-cleavage was 0.135.
As to A31C G68A, the self-cleavage amounted to 0.152.
For A30G G69A the value was 0.12.
For the variant A30G G69C, the self-cleavage worked out at 0.0841.
Under A31U G56U stands 0.187; under A31U G56A, 0.0543.
